Assay: yeast display, Sf9 membrane polyspecificity reagent, FACS + sequencing; frameworks hold sequencing errors
Method in brief: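 Galactose induction of a Saccharomyces cerevisiae BJ5465 synthetic nanobody display library ran 36–48 hours. The cells were then stained for 1 hour at 4 °C with 10% biotinylated, detergent-solubilized Sf9 membrane reagent, pulled down on streptavidin microbeads and FACS-sorted into low and high (top ~1%) gates on expression and reagent-binding fluorescence. Labels for polyreactivity follow the gate of origin.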

Sequence | polyreactivity (PSR sort gate)
QVHLVESGGGLVQAGGSLRLSCAASGRIFGLYAMGWYRQAPGKERELVASISYNGGSTYYADSVKGRFTISRDNAKNTVYLQMNSLKPEDTAVYYCAASLYYYGVRFGYWGQGTQVTVSS | high polyreactivity
QVHLVESGGGLVQAGGSLRLSCAASGRIFKIYAMGWYRQAPGKERELVASISWSGGRTYYADSVKGGFTISRDNAKNTVYVQMNSLKPEDTAVYYCAATFSNSSYIYDFWGQGTHVTVSS | high polyreactivity
QVHLVESGGGLVQAGGSLRLSCAASGRIFNSNAMGWYIQEPGKERELAAAISKRGGSTFYADSVKGRFTISRDNGKNTVFLQMKSLKPEYSAVYYCNARRLSTGFDRYDYWGQGTQVTGSS | high polyreactivity
QVHLVESGGGLVQAGGSLRLSCAASGRIFPGYAMGWYRQAPGKERELVAAISWIGGDTYYADSVKGRFTISRDNAKNTVYLQMNSLIPEDTAVYYCAARYGRHRVSWYATWRYGYWGQGTQVTVSS | low polyreactivity
QVHLVESGGGLVQAGGSLRLSCAASGRIFRVYAMGWYRQAPGKERELVAAIRWSTGSTYYADSVKGRFTISRDIAKNTVYLHMNSLKPEDTAVYYCASYYYSSCSKFDYWGQGTQVTVSS | high polyreactivity
QVHLVESGGGLVQAGGSLRLSCAASGRIFTYKAMGWYRQAPGKERELVAAITYRRSSTYYADSVKGRFTISRDNAKNTVYLQMNSLKTEDTAVYYCAAVFSGFYYAYDYWGQGTQVTVSS | high polyreactivity
QVHLVESGGGLVQAGGSLRLSCAASGRILPFYAMGWYRQAPGKERELVATISWTSDSTYYADSVKGRFTISRDNAKNTVYLQMNSLKPEDTAVYYCAREYTYTYASTVIYDHWGQGTQVTVSS | low polyreactivity
QVHLVESGGGLVQAGGSLRLSCAASGRILVRYAMGWYRQAPGKERELVAAISSSGSSTYYADSVKGRFTISRDNAKNTVYLQMNSLKPEDTAVYYCNKPDVTRGRDVYYWGQGTQVTVSS | low polyreactivity
QVHLVESGGGLVQAGGSLRLSCAASGRIRYYAMGWYRQAPGKERELVAAITSSGGSTYYADSVKGRFTISRDNAKNTVYLQMNSLKPEVTAVYYCIAVASLSGDYWGQGTQVTVSS | high polyreactivity
QVHLVESGGGLVQAGGSLRLSCAASGRIYTGNTMVWYRQAPGKEREFVAAISGSGGRTFYADSVKGRFTISRDNEKNTVYLQMNSLKPEDTAVYYCAARRYRSLGSYGTGSFSYNYWGQGTQVTVSS | high polyreactivity
QVHLVESGGGLVQAGGSLRLSCAASGRNFGTYAMGWYRQAPGKDRELVADISSSGTSTYYADSVKGRFTISRDNAKNTVYLQMNSLKPEDTAVSYCDVVAIDYAYDYYFRLGYDYWGQGTQVSVSS | low polyreactivity
QVHLVESGGGLVQAGGSLRLSCAASGRTFDYNAMGWYRQATGKERELVAAIRFGGGSTYYADSVKGRFTISRDNAKNTVYLQMNSLKPEDTAVYYCNASPLWIGWEIVPVGSSHYDYWGQGTQVTVSS | low polyreactivity
QVHLVESGGGLVQAGGSLRLSCAASGRTFGLYDMGWYRQAPGKERELVAGITRRGGRTYYADSVKGRFTISRDNAKNTVYLQMNSLKPEDTAVYYCAAGTIYLRHAQSPFDYWGQGTQVTVSS | high polyreactivity
QVHLVESGGGLVQAGGSLRLSCAASGRTFGYYAMGWYRHAPGKERELVAAISRSAATTYYADSVKGRFSISRDNAKNTVYLQMYSLKPDDTAVYYCAAGGRTYAPCDYGYWGQGTQVTVSS | high polyreactivity
QVHLVESGGGLVQAGGSLRLSCAASGRTFGYYAMGWYRPAPWKEWELVAAITQSGGSTYYADSVKGRFTISRDTAKITVYLQMHSLKPEDTAVYYCAADDKYFYPGNGYWGQGTQVTVSS | high polyreactivity
QVHLVESGGGLVQAGGSLRLSCAASGRTFIYYAMGWYRQAPGKERELVAAISSGGSTDYADSVKGRFTISRDNAKNTVYLQMNSLKPEDTAVYYCSAVVGYITYYGYDYWGQGTQVTVSS | low polyreactivity
QVHLVESGGGLVQAGGSLRLSCAASGRTFRLYAMGWYRQAPGKERELVAAITRGGRTNYADSVKGRFTISRDNAKNTVFLQMISLKPEDTAVYYCAARYVERHTDYYYWGQGTQVTVSS | low polyreactivity
QVHLVESGGGLVQAGGSLRLSCAASGRTFRSNAMGWYRQAPGKEREFVAAISGRGGITYYADSVKGRFTISRDNAKNTVYLQMNSLKPEDTAVYYCNRDVKYHDYVYVTAIKSPGYNYWGQGTQVTVSS | low polyreactivity
QVHLVESGGGLVQAGGSLRLSCAASGRTFYIYAMGWYRQAPGKERELVAGIRWSGDSTYYADSVKGRFTISRDNAKNTVYLQMNRLKPEDTAVYYCAADISYELLSYYWYYYWGQGSQVTVSS | high polyreactivity
QVHLVESGGGLVQAGGSLRLSCAASGRTFYLYTMGWYRQAPGKEREFVAIISRSGASTRYADSVKGRFTISRDNAKNTVYLQMNSLKPEDTAVYYCAAYVGYPYDYWGQGTQVTVSS | high polyreactivity
QVHLVESGGGLVQAGGSLRLSCAASGRTFYYNAMGWYRQEPGKEREFVAAIRYSGSITYYADSVKGRFTISRDNAKNTVYLQMNSLKPEDTAVYYCAADYVSRRYYYWGQGTQVTVSS | high polyreactivity
QVHLVESGGGLVQAGGSLRLSCAASGRTIQTYTMGWYRQAPGKERELVAVITTRGGRTYYADSVKGRFTISRDNAKNTVYLQMNILKPEDTGVYYCNKGITTRSVRSYDYWGQGTQVTVSS | high polyreactivity

Sequence | polyreactivity (PSR sort gate)
QVHLVESGGGLVQAGGSLRLSCAASGSIFASNTMGWYRQAPGKERELVAGITKIGSSTYYADSVKGRFTISRDNAKNTVYLQMNSLKPEDTAVYYCNAYGPNIYSSRYDYWGQGTQVTVSS | low polyreactivity
QVHLVESGGGLVQAGGSLRLSCAASGSIFAVNAMGWYRQAPGKERELVAVITSRGGSTYYADSVKGRFTISRDNAKNTVYLQMNSLKPEDTAVYYCAARPGAAGYKYYYWGQGTQVTVSS | high polyreactivity
QVHLVESGGGLVQAGGSLRLSCAASGSIFFVNAMGWYRQAPGKERELVADISSGGSTNYADSVKGRFTISRDNAKNTVYLQMNSLKPEDTAVYYCNTDEPPIYERFPYDYWGQGTQVTVSS | low polyreactivity
QVHLVESGGGLVQAGGSLRLSCAASGSIFGRYAMGWYRQAPGKEREFVAAISRGATNTYYADSVKGRFTISRDNAKNTVYLQMNSLKPEDTAVYYCARTQRYDYGYDYWGQGTQVTVSS | low polyreactivity
QVHLVESGGGLVQAGGSLRLSCAASGSIFIYNAMGWYRQAPGKERELVAAISWSGDSTYYADSVKGRFTISRDNAKNTVYLQMNSLKPEDTAVYYCNAKPSRKWGRGTGKQYDYWGQGTQVTVSS | high polyreactivity
QVHLVESGGGLVQAGGSLRLSCAASGSIFKKNTLGWYRQAPGKERELVAVISSSGTRTYYADSVKGRFTISRDNAKNTVYLQMNSLKPEDTAVYYCARRAGGERDDYWGQGTQVTVSS | high polyreactivity
QVHLVESGGGLVQAGGSLRLSCAASGSIFKYNAMGWYRQSPGKERELVAAISSGGSTNYADSVKGRFTISRDNAKNTVYLQMNSLKPEDTAVYYCAKDRRRWYYTRDYWGQGTQVTVSS | low polyreactivity
QVHLVESGGGLVQAGGSLRLSCAASGSIFLAYAMGWYRQAPGKERELVAAISGGGSTYADSVKGRFTISRDNAKNTVYLQMNSLKPEDTAVYYCNADGRGDRFWSNFRFDYWGQGTQVTVSS | low polyreactivity
QVHLVESGGGLVQAGGSLRLSCAASGSIFPYNVMGWYTQAPGTERELVAAISTRGGRTYYADSVKGRFTISRDNANNTVYLELNSLKPEDTAVYDCATAGGPYSDYGYYWGQGTQVTVSS | high polyreactivity
QVHLVESGGGLVQAGGSLRLSCAASGSIFRGYAMGWSRQAPGKERELVAAITSGGSTNYADSVNGRFTISRDNANNTVYLQMNSLKPEDTAVYYCNTVRWGRRTTFYYWGQGTQVTVSS | low polyreactivity
QVHLVESGGGLVQAGGSLRLSCAASGSIFRNNAMGWYRQAPGKARELVAVISRSGGSTYYADSVKGRFTISRDNAKNTVYLDMNSLKPEDTAVYYCDVGYWGRLGFRGYGYWGQGTQVTVSS | low polyreactivity
QVHLVESGGGLVQAGGSLRLSCAASGSIFSSYAMGWYRQATGKERELVASISSGGSTNYADSVKGRFTISRDNAKNTVYLQMNSLKPEDTAVYYCNVDLYNWRGDSTGYDYWGQGTQVTVSS | low polyreactivity
QVHLVESGGGLVQAGGSLRLSCAASGSIFVQYAMGWYRQAPGKERELVAAITRDGDRTYYADSVKGRFTISRDNAKNTVYLQMNSLKPEDTAVYYCAARHSSIRSPQYDYWGQGTQVTVSS | high polyreactivity
QVHLVESGGGLVQAGGSLRLSCAASGSIFYYYGMGWYRQAPGIERELVAAISSGGRTYYADSVKGRFTISRDNAKNTVYLQMDSLKPEDTAVYYCAKPGSYAVYSGWHDYWGQGTQVTVSS | high polyreactivity
QVHLVESGGGLVQAGGSLRLSCAASGSIKQNAMGWYRQAPGKERELVAAIDWDGSSTYYADSVKGRFTISRDNAKNTVYLQMNSLKPEDTAVYYCNTDYTGPDGTDEYDYWGQGTQVTVSS | low polyreactivity
QVHLVESGGGLVQAGGSLRLSCAASGSILTDNAMGWYRQAPGKERELVAAITSSGNTNYADSVKGRFTISRDNAKNTVYLQMNSLKPEDTAVYYCAADSYYKHWTDWLPVGEDYWGQGTEVTVSS | low polyreactivity
QVHLVESGGGLVQAGGSLRLSCAASGSILYGNAMGWYRQAPGKERELVAAISYSGGRTYYADSVKGRFTISRDNAKNTVYLQMNSLKPEDTAVYYCAALHSGRVQNFDYWGQGTQVTVSS | high polyreactivity
QVHLVESGGGLVQAGGSLRLSCAASGSIRVEYAMGWNRQAPGKERELVATITDSGNTNYADSVKGRFTISRDNAKNTVYLQMNSLKPEDTAVYYCAADAYPYYWLDQAFGYDYWGQGTQVTVSS | low polyreactivity
QVHLVESGGGLVQAGGSLRLSCAASGSIVFLYAMGWYRQAPGKEWELVAAISGRGTSTDYADSVKGRFTISRDNAKNTVYLQLTSLKPEDTAVYFCAAKYNRPYQGWRVNHWGQGTQVTVSS | high polyreactivity
QVHLVESGGGLVQAGGSLRLSCAASGSIYTRYAMGWYRQAPGKERDLVAAITVSGGSTYYADSVKGRFTISRDNAKNTVYLQMNSLKPEDTAVYYCARRAWSGPGYFKAIRRFDYWGQGTQVTVSS | low polyreactivity
QVHLVESGGGLVQAGGSLRLSCAASGSNCTYYAMGWYRQAPGKERELVAAIDFSGASTSYADSVKGRFTISRDNAKNTVYFQMNSLKPEDTAVYYCAAVLYWYPPYYYWGQGTQVTVSS | low polyreactivity

— the nanobody polyreactivity screen of Harvey et al. (2022)
